In patent US20220162583:

Key:
Experiment in all cases: cell_activity
[1] = tested on: nd4 mito-nickase (1) left TALE-FokI; details: zebrafish embryos; both nd4 nickase pairs co-injected
[2] = tested on: nd4 mito-nickase (2) left TALE-FokI; details: zebrafish embryos; both nd4 nickase pairs co-injected
[3] = tested on: nd5 mito-nickase right TALE-FokI; details: nearly 30%; with atp8 nickase
[4] = tested on: nd4 mitoTALE nuclease left; details: with nd5 and atp8 nickases; deletions also with nuclease alone
[5] = tested on: nd4 mito-nickase (2) right TALE-FokI; details: zebrafish embryos; both nd4 nickase pairs co-injected
[6] = tested on: nd5 mito-nickase left TALE-FokI; details: nearly 30%; with atp8 nickase
[7] = tested on: atp8 mito-nickase left TALE-FokI; details: nearly 30%; with nd5 nickase
[8] = tested on: nd4 mitoTALE nuclease right; details: with nd5 and atp8 nickases; deletions also with nuclease alone
[9] = tested on: atp8 mito-nickase right TALE-FokI; details: nearly 30%; with nd5 nickase
[10] = tested on: nd4 mito-nickase (1) right TALE-FokI; details: zebrafish embryos; both nd4 nickase pairs co-injected

“AAGTTCTGGTTTTAA (double strand) [nd4 nickase (1) left site]” was tested, and the activity (% embryos with deletion) [1] was 50.

“ACGAGTTAGAAGCAT (double strand) [nd4 nickase (2) left site]” showed an activity (% embryos with deletion) [2] of 50.

“AGGGCTAATGATAGT (double strand) [nd5 nickase right site]” was tested, and the activity (% embryos with deletion) [3] was 30.

For “CGGGTAATAATGATT (double strand) [nd4 nuclease left site]”, the activity (% embryos with deletion) [4] was greater than 90.

“GACTAAAATGAACCT (double strand) [nd4 nickase (2) right site]” was tested, and the activity (% embryos with deletion) [5] was 50.

For “GCTAGATGTGGTTGG (double strand) [nd5 nickase left site]”, the activity (% embryos with deletion) [6] was 30.

With “TAGGTTGAATGTGAT (double strand) [atp8 nickase left site]” the activity (% embryos with deletion) [7] was 30.

For “TATATTCGAAGCTAC (double strand) [nd4 nuclease right site]”, the activity (% embryos with deletion) [8] was greater than 90.

With “TCCTTACTATTATTC (double strand) [atp8 nickase right site]” the activity (% embryos with deletion) [9] was 30.

“TTACACCTAATTCCT (double strand) [nd4 nickase (1) right site]” was tested, and the activity (% embryos with deletion) [10] was 50.
